Target: rsGCaMP.LP294TR.ΔRSET (rsGCaMP1.1)
Assay: crystal structure; crystals with domain-swapped dimers; for rsGCaMP1.1 the C2 space group, two molecules in the asymmetric unit; Ca2+-bound protein

stoichiometry N: 2
Substance: rsGCaMP.LP294TR.ΔRSET (rsGCaMP1.1)
